The target in test [1] is T1, ACA8core (core of ACA8, residues 131-1074, construct lacking the regulatory domain) (UniProt Q9LF79 131-1074).
T1 construct: Embedded in MSP1D1/POPC nanodiscs in the assay; also called core enzyme; ACA8 mutant lacking the regulatory domain
T1 sequence (looked up): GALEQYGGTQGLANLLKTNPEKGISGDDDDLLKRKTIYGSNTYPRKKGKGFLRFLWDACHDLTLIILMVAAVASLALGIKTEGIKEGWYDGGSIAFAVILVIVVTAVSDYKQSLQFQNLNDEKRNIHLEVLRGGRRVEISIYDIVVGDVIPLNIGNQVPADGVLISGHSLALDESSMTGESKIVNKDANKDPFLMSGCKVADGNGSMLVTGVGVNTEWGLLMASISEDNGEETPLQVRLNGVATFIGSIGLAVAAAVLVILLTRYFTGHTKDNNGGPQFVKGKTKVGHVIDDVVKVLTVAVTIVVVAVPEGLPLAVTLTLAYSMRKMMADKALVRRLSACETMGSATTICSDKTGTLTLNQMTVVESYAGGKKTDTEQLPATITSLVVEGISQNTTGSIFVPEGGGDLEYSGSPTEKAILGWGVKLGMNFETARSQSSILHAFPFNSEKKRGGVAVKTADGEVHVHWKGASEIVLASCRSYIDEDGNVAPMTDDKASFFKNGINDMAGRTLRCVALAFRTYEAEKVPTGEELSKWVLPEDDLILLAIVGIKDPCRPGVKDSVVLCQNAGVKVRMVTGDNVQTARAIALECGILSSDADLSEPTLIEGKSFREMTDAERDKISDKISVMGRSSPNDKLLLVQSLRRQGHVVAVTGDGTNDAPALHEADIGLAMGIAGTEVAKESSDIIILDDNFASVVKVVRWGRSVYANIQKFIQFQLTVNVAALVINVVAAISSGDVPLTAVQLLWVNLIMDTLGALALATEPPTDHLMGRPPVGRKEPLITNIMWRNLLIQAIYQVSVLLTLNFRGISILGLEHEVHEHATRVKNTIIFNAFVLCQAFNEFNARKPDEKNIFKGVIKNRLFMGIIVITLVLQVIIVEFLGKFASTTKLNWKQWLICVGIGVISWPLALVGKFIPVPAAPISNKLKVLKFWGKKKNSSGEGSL
Kind of test: fluorescence polarisation; fluorescence anisotropy; 25 µM ACA8core in POPC nanodiscs titrated into 50 nM labelled ACA8RD; 20 °C; 30 mM Tris pH 8.0, 150 mM NaCl, 2 mM CaCl2, 0.5 mM TCEP; one-site model. Conditions: both partners purified.

Test [2] concerns the target T2, fluorescein-labeled CaM (CaM7 from A. thaliana) (A. thaliana, UniProt P59220 1-149, Alexa Fluor 488 C5 maleimide label (the paper also calls it fluorescein-labeled and FITC-labeled); site not stated).
T2 construct: calmodulin 7 (CaM7), A. thaliana; Same protein as m2 with a thiol-reactive fluorophore; also called FITC-labeled CaM; source: E. coli BL21 Gold (DE3), purified (HiTrap Phenyl HP), labelled, PD10 column
Kind of test: fluorescence polarisation; fluorescence anisotropy; full-length ACA8 in POPC nanodiscs titrated into 15 nM labelled CaM; 20 °C; 30 mM Tris pH 8.0, 150 mM NaCl, 2 mM CaCl2, 0.5 mM TCEP; one-site model; apparent. Conditions: both partners purified. (In general: Polarisation of emitted light reports the rotation of a fluorescent probe.)

B1: fluorescein-labeled regulatory domain of ACA8 (ACA8RD, residues 1-130) (domain or fragment)
chain: CMTSLLKSSPGRRRGGDVESGKSEHADSDSDTFYIPSKNASIERLQQWRKAALVLNASRRFRYTLDLKKEQETREMRQKIRSHAHALLAANRFMDMGRESGVEKTTGPATPAGDFGITPEQLVIMSKDHNS
modifications: Alexa Fluor 488 C5 maleimide (the paper also calls it fluorescein) for labelling of the introduced cysteine
notes: a cysteine introduced right before the first residue of the regulatory domain, for site specific labeling with thiol-reactive probes; ACA8 regulatory domain, residues 1-130; also called labeled RD; not shown: His6, N-terminal, cleaved; lipoamyl domain, N-terminal, cleaved
Consider B1, for which the Kd in test [1] was 1700 nM.

B2: full-length ACA8 (plasma-membrane Ca2+-ATPase ACA8) (enzyme)
chain: MTSLLKSSPGRRRGGDVESGKSEHADSDSDTFYIPSKNASIERLQQWRKAALVLNASRRFRYTLDLKKEQETREMRQKIRSHAHALLAANRFMDMGRESGVEKTTGPATPAGDFGITPEQLVIMSKDHNSGALEQYGGTQGLANLLKTNPEKGISGDDDDLLKRKTIYGSNTYPRKKGKGFLRFLWDACHDLTLIILMVAAVASLALGIKTEGIKEGWYDGGSIAFAVILVIVVTAVSDYKQSLQFQNLNDEKRNIHLEVLRGGRRVEISIYDIVVGDVIPLNIGNQVPADGVLISGHSLALDESSMTGESKIVNKDANKDPFLMSGCKVADGNGSMLVTGVGVNTEWGLLMASISEDNGEETPLQVRLNGVATFIGSIGLAVAAAVLVILLTRYFTGHTKDNNGGPQFVKGKTKVGHVIDDVVKVLTVAVTIVVVAVPEGLPLAVTLTLAYSMRKMMADKALVRRLSACETMGSATTICSDKTGTLTLNQMTVVESYAGGKKTDTEQLPATITSLVVEGISQNTTGSIFVPEGGGDLEYSGSPTEKAILGWGVKLGMNFETARSQSSILHAFPFNSEKKRGGVAVKTADGEVHVHWKGASEIVLASCRSYIDEDGNVAPMTDDKASFFKNGINDMAGRTLRCVALAFRTYEAEKVPTGEELSKWVLPEDDLILLAIVGIKDPCRPGVKDSVVLCQNAGVKVRMVTGDNVQTARAIALECGILSSDADLSEPTLIEGKSFREMTDAERDKISDKISVMGRSSPNDKLLLVQSLRRQGHVVAVTGDGTNDAPALHEADIGLAMGIAGTEVAKESSDIIILDDNFASVVKVVRWGRSVYANIQKFIQFQLTVNVAALVINVVAAISSGDVPLTAVQLLWVNLIMDTLGALALATEPPTDHLMGRPPVGRKEPLITNIMWRNLLIQAIYQVSVLLTLNFRGISILGLEHEVHEHATRVKNTIIFNAFVLCQAFNEFNARKPDEKNIFKGVIKNRLFMGIIVITLVLQVIIVEFLGKFASTTKLNWKQWLICVGIGVISWPLALVGKFIPVPAAPISNKLKVLKFWGKKKNSSGEGSL
notes: Integral membrane protein; in most experiments embedded in MSP1D1 nanodiscs (POPC, POPC/POPG, POPC/soy-PI or deuterated stealth nanodiscs); The nanodisc belt protein is a carrier and not a partner; also called apo-ACA8; ACA8-ND; source: used DDM-solubilised or reconstituted in MSP1D1 nanodiscs (Superdex200)
B2: the Kd in test [2] turned out to be 18 nM.

The values are drawn from PMC6255812, “Structural basis for activation of plasma-membrane Ca^2+-ATPase by calmodulin” (Communications Biology, 2018).
